Read-outs that look alike come from different tables or passages of the source. Ends that are not written are not given here.
T1: human β-factor XIIa (human), P00748
T1 chain 1: NGPLSCGQR
T1 chain 2: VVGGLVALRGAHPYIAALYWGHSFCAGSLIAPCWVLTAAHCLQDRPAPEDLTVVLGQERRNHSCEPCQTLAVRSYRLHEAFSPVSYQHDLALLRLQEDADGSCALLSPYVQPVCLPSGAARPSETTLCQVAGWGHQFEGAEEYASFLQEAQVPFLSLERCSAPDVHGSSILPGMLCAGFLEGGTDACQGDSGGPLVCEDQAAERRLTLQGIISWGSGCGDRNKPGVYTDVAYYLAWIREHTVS

T2: kallikrein-related peptidase 4 (KLK4), Q9Y5K2
T2 chain: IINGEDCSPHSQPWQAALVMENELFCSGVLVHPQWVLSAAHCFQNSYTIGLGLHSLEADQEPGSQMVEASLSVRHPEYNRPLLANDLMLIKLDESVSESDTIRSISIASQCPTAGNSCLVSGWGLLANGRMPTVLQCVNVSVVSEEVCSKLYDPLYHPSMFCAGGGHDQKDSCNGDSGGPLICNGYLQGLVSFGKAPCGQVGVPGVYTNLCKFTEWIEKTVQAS

T3: recombinant human matriptase (human), Q9Y5Y6
T3 chain: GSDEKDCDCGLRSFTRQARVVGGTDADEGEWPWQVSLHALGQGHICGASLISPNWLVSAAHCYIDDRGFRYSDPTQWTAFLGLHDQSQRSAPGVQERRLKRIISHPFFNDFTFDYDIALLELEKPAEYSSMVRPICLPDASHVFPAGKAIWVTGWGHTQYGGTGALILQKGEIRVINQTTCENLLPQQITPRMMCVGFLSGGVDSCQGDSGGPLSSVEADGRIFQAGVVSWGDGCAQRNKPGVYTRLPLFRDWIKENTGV

T4: FXIIa in human plasma (generated by kaolin activation of FXII in aPTT assays) (human), P00748
T4 chain: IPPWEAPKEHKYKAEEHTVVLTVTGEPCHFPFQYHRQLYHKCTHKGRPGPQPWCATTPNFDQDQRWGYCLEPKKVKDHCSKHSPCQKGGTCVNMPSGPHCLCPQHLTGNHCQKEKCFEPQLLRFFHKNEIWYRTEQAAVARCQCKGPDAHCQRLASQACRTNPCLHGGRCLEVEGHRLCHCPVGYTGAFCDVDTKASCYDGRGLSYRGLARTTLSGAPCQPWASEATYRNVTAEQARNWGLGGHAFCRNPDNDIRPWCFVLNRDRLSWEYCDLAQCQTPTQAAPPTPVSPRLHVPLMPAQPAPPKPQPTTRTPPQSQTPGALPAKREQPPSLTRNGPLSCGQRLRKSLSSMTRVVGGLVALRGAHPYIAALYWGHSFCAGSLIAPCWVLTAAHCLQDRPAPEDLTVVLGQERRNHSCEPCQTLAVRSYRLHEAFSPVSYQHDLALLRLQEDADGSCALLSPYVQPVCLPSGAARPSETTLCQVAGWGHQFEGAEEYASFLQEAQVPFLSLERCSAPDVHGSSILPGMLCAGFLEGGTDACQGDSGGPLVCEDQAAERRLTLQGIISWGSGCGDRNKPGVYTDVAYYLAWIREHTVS


What was measured:
[1] = target: T1, human β-factor XIIa (human), P00748; assay: competitive protease inhibition assay
[2] = target: human cationic trypsin (human), P07477; assay: competitive inhibition assay with peptide substrate
[3] = target: T1, human β-factor XIIa (human), P00748; assay: as above
[4] = target: T2, kallikrein-related peptidase 4 (KLK4), …; assay: as above
[5] = target: T3, recombinant human matriptase (human), …; assay: as above
[6] = target: bovine trypsin (bovine), P00760; assay: SPR, bovine trypsin
Sequence of bovine trypsin (bovine), P00760 (P00760 24-246): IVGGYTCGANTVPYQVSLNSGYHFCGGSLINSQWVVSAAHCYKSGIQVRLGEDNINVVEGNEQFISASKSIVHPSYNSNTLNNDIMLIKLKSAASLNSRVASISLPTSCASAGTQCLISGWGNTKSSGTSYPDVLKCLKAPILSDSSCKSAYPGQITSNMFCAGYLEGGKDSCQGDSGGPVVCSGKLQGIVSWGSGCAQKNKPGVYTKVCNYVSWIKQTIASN

[7] = target: T1, human β-factor XIIa (human), P00748; assay: competitive protease inhibition assay, Ac-QRFR-pNA substrate, Morrison Ki
[8] = target: T1, human β-factor XIIa (human), P00748; assay: SPR (Biacore T200), biotinylated human β-FXIIa captured on chip, peptide as analyte, 1:1 model
[9] = target: T1, human β-factor XIIa (human), P00748; assay: as above
[10] = target: T1, human β-factor XIIa (human), P00748; assay: mRNA display affinity selection on bead-immobilised biotinylated human β-FXIIa, NGS; share of the sequence in the recovered library; peptide displayed as acyclic mRNA fusion
[11] = target: T4, FXIIa in human plasma (generated by …); assay: cell-based or functional assay
[12] = target: human cationic trypsin (human), P07477; assay: competitive protease inhibition assay (selectivity panel), human trypsin, Boc-VPR-MCA
[13] = target: T3, recombinant human matriptase (human), …; assay: competitive protease inhibition assay (selectivity panel), human matriptase, Boc-QAR-MCA
[14] = target: T1, human β-factor XIIa (human), P00748; assay: mRNA display affinity selection on bead-immobilised biotinylated human β-FXIIa, NGS; share of the sequence in the recovered library
[15] = target: bovine trypsin (bovine), P00760; assay: SPR, ratio of KD values
[16] = target: T1, human β-factor XIIa (human), P00748; assay: SPR, ratio of KD values
[17] = target: T1, human β-factor XIIa (human), P00748; assay: competitive protease inhibition assay, ratio of Ki values
[18] = target: T1, human β-factor XIIa (human), P00748; assay: competitive protease inhibition assay, 0.5 nM FXIIa, Boc-QGR-MCA substrate

Binder | Kd [6] | Ki [7] | Kd [8] | Kd [9] | Ki [18] | also measured
RICPRIGRLCRRDSDCPGACICRATRFCG (modifications not checked) [acyclic variant of MCoFx1 based on a minimized knottin scaffold (29 amino acids)] |  |  |  |  |  | Ki [1]: 1.4 nM
RVCPRILKKCRRDSDCPGACICRGNGYCG (modifications not checked) [acyclic MCoTI-II variant M] |  |  |  |  |  | Ki [2]: 0.4 nM; Ki [3]: 3.3 nM; Ki [4]: 0.07 nM; Ki [5]: 0.4 nM
DGGVCPRVGWRCRRDSDCPGACICYPTKWCGSGS (modifications not checked) [MCoFx4 acyclic] | 15.1 nM | 17 nM | 74 nM | 73.8 nM |  | Population (%) [10]: 2.3%
DGGVCPRVGWRCRRDSDCPGACICYPTKWCGSGS (modifications not checked) [MCoFx4 cyclic] | 4.09 nM | 5.5 nM | 14 nM | 14.4 nM |  | 
DGGICPRIGRLCRRDSDCPGACICRGNGYCGSGS (modifications not checked) [cMCoTI-fxL1] |  | 0.69 nM |  |  |  | EC2× (inhibitor concentration that doubles the clotting time), aPTT assay in human plasma [11]: 500 nM; Ki [12]: 996 nM; Ki [13]: 2210 nM
DGGRCCGGYLVCRRDSDCPGACICVFKKHCGSGS (modifications not checked) [MCoFx5 acyclic] |  | 106 nM | 23 nM |  |  | Population (%) [10]: 0.8%
DGGRCCGGYLVCRRDSDCPGACICVFKKHCGSGS (modifications not checked) [MCoFx5 cyclic] |  | 207 nM | 82 nM | 81.8 nM |  | 
MDGGICPRIGRLCRRDSDCPGACICRATRFCGSGSGS (modifications not checked) [MCoFx1, mRNA display selected sequence (parent of the saturation mutagenesis library)] |  |  |  |  |  | Population (%) [14]: 20.7%
DGGVCPKILKKCRRDSDCPGACICRGNGYCGSGS (modifications not checked) [MCoTI-II (Momordica cochinchinensis trypsin inhibitor-II), chemically synthesized, cyclic] | < 0.1 nM |  | 58 nM |  |  | 
DGGICPRIGRLCRRDSDCPGACICRATRFCGSGY (modifications not checked) [MCoFx1 cyclic] | 31.5 nM | 0.37 nM |  | 0.9 nM |  | EC2× (inhibitor concentration that doubles the clotting time), aPTT assay in human plasma [11]: 702 nM; fold lower affinity than MCoTI-II [15]: 300 fold; fold higher affinity than MCoTI-II [16]: 60 fold; fold more potent than MCoTI-II [17]: 350 fold; Ki [12]: 1110 nM; Ki [13]: 9120 nM
DGGICPRIGRLCRRDSDCPGACICRATRFCGSGY (modifications not checked) [MCoFx1 acyclic] | 59.6 nM | 0.73 nM | 1.9 nM | 1.89 nM |  | 
GGICPRIGRLCRRDSDCPGACICRATGFCGSGSD (not fully specified (bridges); cysteine pairing not given here) [Cyclic [R27G]MCoFx7] |  |  |  |  | 0.21 nM | fold loss in activity against cyclic MCoFx7 [17]: 3.2 fold
GGICPRIGRLCRRDSDCPGACICRATHFCGSGSD (not fully specified (bridges); cysteine pairing not given here) [Cyclic [R27H]MCoFx7] |  |  |  |  | 0.12 nM | fold loss in activity against cyclic MCoFx7 [17]: 2 fold
GGICPRIGRLCRRDSDCPGACICRATRFCGSGSP (not fully specified (bridges); cysteine pairing not given here) [Cyclic [D34P]MCoFx7] |  |  |  |  | 0.091 nM | 
GGICPRIGRLCRKDSDCPGACICRATRFCGSGSD (not fully specified (bridges); cysteine pairing not given here) [Cyclic [R13K]MCoFx7] |  |  |  |  | 0.068 nM | 
GGICPRIGRLCRRDSDCPGACICRKTRFCGSGSD (not fully specified (bridges); cysteine pairing not given here) [Cyclic [A25K]MCoFx7] |  |  |  |  | 0.046 nM | 
GGICPRIGRLCRRDSDCPGACICRPTRFCGSGSD (not fully specified (bridges); cysteine pairing not given here) [Cyclic [A25P]MCoFx7] |  |  |  |  | 0.093 nM | 
GGICPRIGRLCTRDSDCPGACICRATRFCGSGSD (not fully specified (bridges); cysteine pairing not given here) [Cyclic [R12T]MCoFx7] |  |  |  |  | 0.065 nM | 
GGICPRIGRLCERDSDCPGACICRATRFCGSGSD (not fully specified (bridges); cysteine pairing not given here) [Cyclic [R12E]MCoFx7] |  |  |  |  | 0.13 nM | fold weaker activity than cyclic MCoFx7 [17]: 2 fold
GGICPRIGRLCRRDSDCPGACICRATRFCGSGSD (modifications not checked) [Cyclic MCoFx7] |  |  |  |  | 0.064 nM | 
GGICPRIGRLCVRDSDCPGACICRATRFCGSGSD (not fully specified (bridges); cysteine pairing not given here) [Cyclic [R12V]MCoFx7] |  |  |  |  | 0.069 nM | 
DGGICPRILVYCRRDSDCPGACICIRRTYCGSGS (modifications not checked) [MCoFx2 acyclic] | < 0.1 nM | 73 nM | 45 nM | 45.4 nM |  | Population (%) [10]: 19.8%
DGGICPRILVYCRRDSDCPGACICIRRTYCGSGS (modifications not checked) [MCoFx2 cyclic] | < 0.1 nM | 12 nM |  | 10 nM |  | 
DGGRCPRLLRWCRRDSDCPGACICARGGLCGSGS (modifications not checked) [MCoFx3 acyclic] | 2.39 nM | 525 nM | 167 nM |  |  | Population (%) [10]: 2.3%
DGGRCPRLLRWCRRDSDCPGACICARGGLCGSGS (modifications not checked) [MCoFx3 cyclic] | 2.72 nM | 75 nM | 23 nM | 22.8 nM |  | 

Reference: patent publication US20240344241A1, “PROTEINACEOUS MOLECULES AND USES THEREFOR” (THE UNIVERSITY OF QUEENSLAND, priority 2021, published 2024)
